Read-outs that look alike come from different tables or passages of the source. Values belong to the molecule of their own block, whether it stands above or below them. Starred links: 1 amine or outer side, 2 acyl side, 3 side chain; linkers in the order of their positions; H or OH if unused. Non-standard residues stand in square brackets, D forms with d. Residues, ends and D or L forms follow the SMILES beside them. No end group written: not given here. *: point of attachment. PEG24 = NCCOCCOCCOCCOCCOCCOCCOCCOCCOCCOCCOCCOCCOCCOCCOCCOCCOCCOCCOCCOCCOCCOCCOCCOCCC(=O)O; FITC = O=C1OC2(c3ccc(O)cc3Oc3cc(O)ccc32)c2ccc(NC(=S)*)cc21; PEG12 = NCCOCCOCCOCCOCCOCCOCCOCCOCCOCCOCCOCCOCCC(=O)O; 4Abz(3-OiBu) = CC(C)COc1cc(C(=O)[*:2])ccc1N[*:1]; PEG8 = NCCOCCOCCOCCOCCOCCOCCOCCOCCC(=O)O; X1 = CC(C)Oc1cc(C(=O)[*:2])ccc1N[*:1]; Ahx = NCCCCCC(=O)O
Legend:
p300 [1] = biological target: T1, p300 (Homo sapiens, UniProt Q09472); assay: fluorescence anisotropy direct binding to p300; parameters: made in house; conditions: fluorescein-labelled conjugates
Protocol: The hybrids 2 and 3a–c were then tested in a previously described fluorescence anisotropy p300/HIF-1α competition and p300 binding assays respectively (Fig. 2a).[33]
Fig. 2 Biophysical screening of HIF-1α peptides and hybrids, HIF-1α794–826, 2 and 3a–c (a) fluorescence anisotropy (FA) competition data for inhibition of p300/FITC-HIF-1α C-TAD for HIF-1α794–826 and 2 (b) (FA) binding data for 3a–c to p300 (schematic structure shown below).
Binding assays and protein expression were carried out as previously reported. 2, 3
The helix 2-3 peptide and the helix 2-extended peptide were purchased from Proteogenix,
France and the sequences shown below.
(1 picture or pasted object on this page, not shown here)
Target sequence in this assay (Q09472 whole entry, species assumed): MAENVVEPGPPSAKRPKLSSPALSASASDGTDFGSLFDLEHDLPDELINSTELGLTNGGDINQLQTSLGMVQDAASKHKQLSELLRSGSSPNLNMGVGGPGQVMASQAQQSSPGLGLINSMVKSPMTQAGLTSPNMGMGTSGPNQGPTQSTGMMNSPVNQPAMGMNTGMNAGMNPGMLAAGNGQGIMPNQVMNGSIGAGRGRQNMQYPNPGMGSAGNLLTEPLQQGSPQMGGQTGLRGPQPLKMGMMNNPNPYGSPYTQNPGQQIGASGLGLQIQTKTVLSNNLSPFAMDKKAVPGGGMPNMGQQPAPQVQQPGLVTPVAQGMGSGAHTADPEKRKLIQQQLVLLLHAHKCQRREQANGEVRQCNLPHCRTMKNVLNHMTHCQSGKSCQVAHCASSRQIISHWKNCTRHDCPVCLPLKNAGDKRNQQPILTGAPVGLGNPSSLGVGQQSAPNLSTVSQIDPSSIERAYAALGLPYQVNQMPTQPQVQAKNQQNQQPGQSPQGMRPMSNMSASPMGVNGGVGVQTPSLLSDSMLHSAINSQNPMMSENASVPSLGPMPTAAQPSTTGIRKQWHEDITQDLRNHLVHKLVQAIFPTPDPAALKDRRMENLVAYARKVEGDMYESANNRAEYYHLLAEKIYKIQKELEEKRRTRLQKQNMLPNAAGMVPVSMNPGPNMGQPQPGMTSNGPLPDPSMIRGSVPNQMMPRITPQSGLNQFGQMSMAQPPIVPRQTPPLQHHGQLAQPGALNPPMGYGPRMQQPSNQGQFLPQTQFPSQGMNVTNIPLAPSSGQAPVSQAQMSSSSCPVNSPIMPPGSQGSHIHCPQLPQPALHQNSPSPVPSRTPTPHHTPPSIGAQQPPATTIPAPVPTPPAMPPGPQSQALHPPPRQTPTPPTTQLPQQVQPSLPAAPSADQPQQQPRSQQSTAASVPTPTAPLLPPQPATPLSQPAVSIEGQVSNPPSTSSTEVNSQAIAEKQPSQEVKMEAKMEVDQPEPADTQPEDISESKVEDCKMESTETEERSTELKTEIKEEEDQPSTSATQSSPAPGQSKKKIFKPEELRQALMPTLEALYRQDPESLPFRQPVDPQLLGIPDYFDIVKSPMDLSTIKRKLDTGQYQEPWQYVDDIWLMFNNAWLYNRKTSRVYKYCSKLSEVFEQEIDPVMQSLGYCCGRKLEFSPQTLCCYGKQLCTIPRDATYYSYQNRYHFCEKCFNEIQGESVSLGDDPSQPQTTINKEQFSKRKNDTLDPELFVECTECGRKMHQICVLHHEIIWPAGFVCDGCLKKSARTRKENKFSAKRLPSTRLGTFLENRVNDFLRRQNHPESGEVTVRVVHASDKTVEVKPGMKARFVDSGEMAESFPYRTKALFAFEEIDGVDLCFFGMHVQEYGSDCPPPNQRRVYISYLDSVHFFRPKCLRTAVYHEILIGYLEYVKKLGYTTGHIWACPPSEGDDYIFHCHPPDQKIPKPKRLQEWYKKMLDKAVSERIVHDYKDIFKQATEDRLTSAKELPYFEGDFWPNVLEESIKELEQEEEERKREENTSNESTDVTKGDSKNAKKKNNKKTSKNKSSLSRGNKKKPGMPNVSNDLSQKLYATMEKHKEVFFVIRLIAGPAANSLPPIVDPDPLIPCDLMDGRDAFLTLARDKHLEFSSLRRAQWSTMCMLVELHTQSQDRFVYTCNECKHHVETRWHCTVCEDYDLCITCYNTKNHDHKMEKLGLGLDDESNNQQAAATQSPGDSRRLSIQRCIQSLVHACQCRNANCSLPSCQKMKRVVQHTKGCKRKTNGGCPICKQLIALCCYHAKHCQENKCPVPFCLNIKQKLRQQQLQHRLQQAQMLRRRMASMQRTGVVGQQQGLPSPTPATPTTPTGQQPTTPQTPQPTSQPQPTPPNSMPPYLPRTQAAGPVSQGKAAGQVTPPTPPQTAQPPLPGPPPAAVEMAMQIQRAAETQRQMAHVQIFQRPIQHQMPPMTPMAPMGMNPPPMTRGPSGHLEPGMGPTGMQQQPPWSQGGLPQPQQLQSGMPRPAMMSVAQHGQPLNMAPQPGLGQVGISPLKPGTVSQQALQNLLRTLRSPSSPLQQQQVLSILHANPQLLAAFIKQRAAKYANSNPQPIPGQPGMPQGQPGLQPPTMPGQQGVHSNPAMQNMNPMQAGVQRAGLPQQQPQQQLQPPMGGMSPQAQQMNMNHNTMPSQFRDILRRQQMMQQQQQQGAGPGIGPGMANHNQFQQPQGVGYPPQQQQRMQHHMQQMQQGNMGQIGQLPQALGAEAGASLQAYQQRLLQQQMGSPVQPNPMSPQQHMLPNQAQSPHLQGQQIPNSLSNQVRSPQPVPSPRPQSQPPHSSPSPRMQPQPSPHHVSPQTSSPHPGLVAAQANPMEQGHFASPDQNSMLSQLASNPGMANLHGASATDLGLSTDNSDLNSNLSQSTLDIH

p53/hDM2 interaction = assay: fluorescence anisotropy competition assay p53/hDM2; format: binding
Source text: At first the lower inhibitory potency of both HIF-1α794–826 and hybrid 2 in comparison to helix mimetic 1 (9.2(±0.9) μM) which we determined previously,[33] might seem counterintuitive. One explanation that might account for this observation is that there may be a non-specific component to PPI inhibition associated with the aromatic oligoamide helix mimetic 1 (supported in part by a non-unity Hill co-efficient for the curve fitting, a property not observed for 2). […] We therefore performed further biophysical analysis. Although we illustrated previously that inhibition of HIF-1α/p300 by 1 was specific to the scaffold and selective in comparison to the eIF4E/4G interaction,[33] we expanded the range of assays here. […] Thus, by adding native amino acid residues from the HIF-1α sequence to the core helix mimetic 1 in hybrid 2, the specificity and selectivity of binding towards target interactions was improved.
Fig. 3 Biophysical screening of helix mimetic 1 and hybrid 2 to profile selectivity; FA competition data for inhibition of p53/hDM2.

HIF-1α/p300 interaction = biological target: T2, HIF-1α/p300 interaction (Homo sapiens, UniProt Q09472); parameters: method as in 2 sources, ref 33 = [33]; PMID 24782431; doi:10.1002/cbic.201400009; Burslem G. M. Kyle H. F. Breeze A. L. Edwards T. A. Nelson A. Warriner S. L. Wilson A. J. ChemBioChem 2014 15 1083 1087 24782431 10.1002/cbic.201400009 PMC4159589 ||| ref 32 = [32]; PMID 26135796; doi:10.1039/c5mb00284b; Kyle H. F. Wickson K. F. Stott J. Burslem G. M. Breeze A. L. Tiede C. Tomlinson D. C. Warriner S. L. Nelson A. Wilson A. J. Edwards T. A. Mol. BioSyst. 2015 11 2738 2749 26135796 10.1039/c5mb00284b; conditions: fluorescence anisotropy competition; prior truncation studies; read-out: IC50, inhibition of the HIF-1α/p300 interaction by HIF-1α peptides; cited from earlier work
T2 construct: made in house
T2 sequence (Q09472 330-420 limits assumed): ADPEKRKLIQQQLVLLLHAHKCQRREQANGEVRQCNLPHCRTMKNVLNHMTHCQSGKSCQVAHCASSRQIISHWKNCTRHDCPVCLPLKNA

p300 [2] = biological target: T1, p300; assay: fluorescence anisotropy; conditions: cited from earlier work
Target sequence in this assay (Q09472 2-2414): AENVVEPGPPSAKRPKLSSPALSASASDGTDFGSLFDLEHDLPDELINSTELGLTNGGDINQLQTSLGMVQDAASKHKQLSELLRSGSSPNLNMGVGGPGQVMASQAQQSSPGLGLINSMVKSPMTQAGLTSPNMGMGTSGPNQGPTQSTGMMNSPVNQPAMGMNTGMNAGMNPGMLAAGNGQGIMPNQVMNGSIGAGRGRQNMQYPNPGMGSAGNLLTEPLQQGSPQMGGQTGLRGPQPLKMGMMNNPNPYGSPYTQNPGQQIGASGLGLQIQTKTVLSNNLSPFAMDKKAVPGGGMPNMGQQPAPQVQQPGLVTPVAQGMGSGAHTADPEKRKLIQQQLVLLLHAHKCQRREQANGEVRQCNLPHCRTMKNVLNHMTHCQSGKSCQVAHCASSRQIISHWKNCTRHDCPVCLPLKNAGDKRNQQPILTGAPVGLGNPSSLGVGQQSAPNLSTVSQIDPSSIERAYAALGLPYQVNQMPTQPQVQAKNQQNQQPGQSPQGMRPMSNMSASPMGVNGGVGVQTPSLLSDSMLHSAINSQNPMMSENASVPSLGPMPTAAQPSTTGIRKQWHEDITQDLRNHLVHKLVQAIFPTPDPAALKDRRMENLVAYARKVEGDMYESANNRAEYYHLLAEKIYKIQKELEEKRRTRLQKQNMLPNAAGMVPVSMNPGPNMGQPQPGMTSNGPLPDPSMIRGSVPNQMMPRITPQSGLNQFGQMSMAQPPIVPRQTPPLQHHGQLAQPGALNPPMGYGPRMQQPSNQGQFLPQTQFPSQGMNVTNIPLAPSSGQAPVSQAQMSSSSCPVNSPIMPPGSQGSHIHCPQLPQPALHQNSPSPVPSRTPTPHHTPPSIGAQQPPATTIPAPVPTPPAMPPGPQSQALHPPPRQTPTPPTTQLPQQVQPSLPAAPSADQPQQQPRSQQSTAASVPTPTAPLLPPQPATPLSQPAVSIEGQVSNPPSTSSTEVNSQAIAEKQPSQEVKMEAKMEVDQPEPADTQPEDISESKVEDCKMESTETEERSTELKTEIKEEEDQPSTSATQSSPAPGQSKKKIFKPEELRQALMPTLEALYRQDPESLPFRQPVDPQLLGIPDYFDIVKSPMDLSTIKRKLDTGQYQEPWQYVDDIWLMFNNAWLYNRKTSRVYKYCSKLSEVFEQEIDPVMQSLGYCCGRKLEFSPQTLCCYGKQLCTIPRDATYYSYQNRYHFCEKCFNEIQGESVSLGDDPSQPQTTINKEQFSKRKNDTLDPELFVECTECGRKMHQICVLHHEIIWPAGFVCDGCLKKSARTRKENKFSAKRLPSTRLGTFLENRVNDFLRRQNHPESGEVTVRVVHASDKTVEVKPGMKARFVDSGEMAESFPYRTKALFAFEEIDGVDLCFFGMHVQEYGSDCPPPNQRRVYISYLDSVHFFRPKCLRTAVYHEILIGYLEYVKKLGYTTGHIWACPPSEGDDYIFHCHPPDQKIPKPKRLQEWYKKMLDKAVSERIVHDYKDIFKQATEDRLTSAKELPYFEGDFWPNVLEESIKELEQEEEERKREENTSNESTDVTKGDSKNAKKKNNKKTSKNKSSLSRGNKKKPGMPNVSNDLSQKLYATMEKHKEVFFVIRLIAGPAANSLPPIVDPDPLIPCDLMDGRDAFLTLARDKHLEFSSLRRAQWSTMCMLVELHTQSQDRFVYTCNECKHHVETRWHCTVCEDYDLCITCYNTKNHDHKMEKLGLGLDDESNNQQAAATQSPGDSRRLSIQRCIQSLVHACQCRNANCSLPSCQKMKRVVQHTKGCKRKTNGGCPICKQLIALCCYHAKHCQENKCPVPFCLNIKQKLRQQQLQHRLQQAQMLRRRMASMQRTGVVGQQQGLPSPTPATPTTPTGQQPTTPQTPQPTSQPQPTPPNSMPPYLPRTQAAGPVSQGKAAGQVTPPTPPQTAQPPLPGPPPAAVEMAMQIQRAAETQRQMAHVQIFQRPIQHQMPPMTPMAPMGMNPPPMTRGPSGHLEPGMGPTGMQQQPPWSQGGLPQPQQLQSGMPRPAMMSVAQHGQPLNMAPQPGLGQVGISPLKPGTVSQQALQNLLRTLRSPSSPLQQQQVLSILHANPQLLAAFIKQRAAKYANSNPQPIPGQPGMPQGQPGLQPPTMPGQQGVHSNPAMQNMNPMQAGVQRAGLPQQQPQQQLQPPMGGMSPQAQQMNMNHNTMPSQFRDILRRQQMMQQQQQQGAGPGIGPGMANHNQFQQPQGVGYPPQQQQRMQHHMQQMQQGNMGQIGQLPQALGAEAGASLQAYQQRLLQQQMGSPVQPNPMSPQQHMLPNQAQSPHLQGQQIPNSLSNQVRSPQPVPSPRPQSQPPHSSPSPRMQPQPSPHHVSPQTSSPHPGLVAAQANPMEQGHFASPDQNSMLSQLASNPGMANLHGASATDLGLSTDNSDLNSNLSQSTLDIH

p300 [3] = biological target: T1, p300; parameters: made in house; conditions: fluorescence anisotropy direct binding; cited from earlier work
Source text: A requirement for optimal linker length is supported by the fact that as the length of the PEG linker in 3a–c increases, so does binding affinity. In spite of the weaker binding affinities observed for 3a–c, the weak binding for HIF794–804 (helix 2) and HIF816– ...
Target sequence in this assay (Q09472 whole entry, species assumed): as the sequence (Q09472 whole entry, species assumed) above

p300 [4] = biological target: T1, p300; assay: fluorescence anisotropy competition; conditions: cited from earlier work
Target sequence in this assay (Q09472 2-2414): as the sequence (Q09472 2-2414) above

[5] = biological target: HIF-1α C-TAD 794-826 (Homo sapiens) (UniProt Q16665); assay: fluorescence anisotropy; conditions: cited from earlier work

p300 (from UniProt Q09472), sequence (Q09472 2-2414): as above

Kd (p300 [1]): > 200 µM
Molecule: CC(C)C[C@H](NC(=O)[C@H](C)NC(=O)[C@H](CCCNC(=N)N)NC(=O)[C@H](CC(C)C)NC(=O)[C@H](CC(C)C)NC(=O)[C@H](CCC(=O)O)NC(=O)[C@H](CCC(=O)O)NC(=O)CCOCCOCCOCCOCCOCCOCCOCCOCCNC(=O)[C@H](C)NC(=O)[C@H](CC(N)=O)NC(=O)[C@@H](NC(=O)[C@H](CCC(=O)O)NC(=O)[C@H](CS)NC(=O)[C@H](CC(=O)O)NC(=O)[C@H](Cc1ccc(O)cc1)NC(=O)[C@H](CO)NC(=O)[C@@H](NC(=O)[C@H](CC(C)C)NC(=O)[C@H](CCC(N)=O)NC(=O)CCCCCNC(=S)Nc1ccc2c(c1)C(=O)OC21c2ccc(O)cc2Oc2cc(O)ccc21)[C@@H](C)O)C(C)C)C(=O)N[C@@H](CC(=O)O)C(=O)N[C@@H](CCC(N)=O)C(=O)N[C@H](C(=O)N[C@@H](CC(N)=O)C(N)=O)C(C)C [3a] ({FITC-Ahx}-QLTSYDCEVNA[PEG8]EELLRALDQVN-NH2)

Kd (p300 [1]): > 200 µM
Molecule: CC(C)C[C@H](NC(=O)[C@H](C)NC(=O)[C@H](CCCNC(=N)N)NC(=O)[C@H](CC(C)C)NC(=O)[C@H](CC(C)C)NC(=O)[C@H](CCC(=O)O)NC(=O)[C@H](CCC(=O)O)NC(=O)CCOCCOCCOCCOCCOCCOCCOCCOCCOCCOCCOCCOCCNC(=O)[C@H](C)NC(=O)[C@H](CC(N)=O)NC(=O)[C@@H](NC(=O)[C@H](CCC(=O)O)NC(=O)[C@H](CS)NC(=O)[C@H](CC(=O)O)NC(=O)[C@H](Cc1ccc(O)cc1)NC(=O)[C@H](CO)NC(=O)[C@@H](NC(=O)[C@H](CC(C)C)NC(=O)[C@H](CCC(N)=O)NC(=O)CCCCCNC(=S)Nc1ccc2c(c1)C(=O)OC21c2ccc(O)cc2Oc2cc(O)ccc21)[C@@H](C)O)C(C)C)C(=O)N[C@@H](CC(=O)O)C(=O)N[C@@H](CCC(N)=O)C(=O)N[C@H](C(=O)N[C@@H](CC(N)=O)C(N)=O)C(C)C [3b] ({FITC-Ahx}-QLTSYDCEVNA[PEG12]EELLRALDQVN-NH2)

Kd (p300 [1]): 144 µM
Molecule: CC(C)C[C@H](NC(=O)[C@H](C)NC(=O)[C@H](CCCNC(=N)N)NC(=O)[C@H](CC(C)C)NC(=O)[C@H](CC(C)C)NC(=O)[C@H](CCC(=O)O)NC(=O)[C@H](CCC(=O)O)NC(=O)CCOCCOCCOCCOCCOCCOCCOCCOCCOCCOCCOCCOCCOCCOCCOCCOCCOCCOCCOCCOCCOCCOCCOCCOCCNC(=O)[C@H](C)NC(=O)[C@H](CC(N)=O)NC(=O)[C@@H](NC(=O)[C@H](CCC(=O)O)NC(=O)[C@H](CS)NC(=O)[C@H](CC(=O)O)NC(=O)[C@H](Cc1ccc(O)cc1)NC(=O)[C@H](CO)NC(=O)[C@@H](NC(=O)[C@H](CC(C)C)NC(=O)[C@H](CCC(N)=O)NC(=O)CCCCCNC(=S)Nc1ccc2c(c1)C(=O)OC21c2ccc(O)cc2Oc2cc(O)ccc21)[C@@H](C)O)C(C)C)C(=O)N[C@@H](CC(=O)O)C(=O)N[C@@H](CCC(N)=O)C(=O)N[C@H](C(=O)N[C@@H](CC(N)=O)C(N)=O)C(C)C [3c] ({FITC-Ahx}-QLTSYDCEVNA[PEG24]EELLRALDQVN-NH2)

Molecule: CC[C@H](C)[C@H](NC(=O)[C@@H]1CCCN1C(=O)[C@H](C)NC(=O)[C@H](CC(N)=O)NC(=O)[C@@H](NC(=O)[C@H](CCC(=O)O)NC(=O)[C@H](CO)NC(=O)[C@H](Cc1ccc(O)cc1)NC(=O)[C@H](CO)NC(=O)[C@@H](NC(=O)[C@H](CC(C)C)NC(=O)[C@H](CCC(N)=O)NC(C)=O)[C@@H](C)O)C(C)C)C(=O)N[C@@H](CCC(N)=O)C(=O)N[C@@H](CO)C(=O)N[C@@H](CCCNC(=N)N)C(=O)N[C@@H](CC(N)=O)C(=O)N[C@@H](CC(C)C)C(=O)N[C@@H](CC(C)C)C(=O)N[C@@H](CCC(N)=O)C(=O)NCC(=O)NCC(=O)Nc1ccc(C(=O)Nc2ccc(C(=O)Nc3ccc(C(=O)NCC(=O)O)cc3OC(C)C)cc2OCC(C)C)cc1OCC(C)C [compound 2] (Ac-QLTSYSEVNAPIQSRNLLQGG[4Abz(3-OiBu)][4Abz(3-OiBu)][X1]G-OH)
IC50 (p53/hDM2 interaction): > 100 µM

Molecule: Ac-LGQSMDESGLPQLTSYDCEVNAPIQGSRNLLQGEELLRALDQVN-NH2 [HIF-1α782–826, 42 residue HIF-1α C-TAD peptide]
IC50 (HIF-1α/p300 interaction): 0.59 µM

Molecule: Ac-QLTSYDCEVNAPIQGSRNLLQ-NH 2 (Ac-QLTSYDCEVNAPIQGSRNLLQ-NH2) [HIF-1α794–815, peptide comprising the same residues as the peptidic region of hybrid 2]
IC50 (HIF-1α/p300 interaction): > 500 µM

Molecule: FITC-HIF-1α794-826 794-826 (from UniProt Q16665)
Kd (p300 [2]): 6.74 µM

Molecule: FITC-HIF-1α794–826: FITC-labelled HIF-1α794–826 peptide ({FITC}-QLTSYDCEVNAPIQGSRNLLQGEELLRALDQVN; UniProt Q16665 794-826, looked up, fragment)
Kd (p300 [3]): 6.74 ± 0.54 µM

Molecule: HIF-1α794-815 794-815 (from UniProt Q16665)
IC50 (p300 [4]): > 500 µM

Molecule: HIF-1α794-826 794-826 (from UniProt Q16665)
IC50 (p300 [4]): 89 µM

Molecule: p300 (from UniProt Q09472)
Kd [5]: 6.74 µM
